Measured values from US20040203016.
Read-outs that look alike come from different tables or passages of the source.

Key:
R recombinase [1] = settings: in vitro resolution between RS sites, recombinants
R recombinase [2] = experiment: cell_activity; settings: in vivo resolution after 4 h in LB+IPTG (3% after 1 h)

In the case of RS site, the activity (R recombinase [1]) is reported as 30% and the activity (R recombinase [2]) is reported as 15%.
